Measured values published in PMC8958351, “Ubiquitylation of cyclin C by HACE1 regulates cisplatin‐associated sensitivity in gastric cancer” (Clinical and Translational Medicine, 2022).

What was measured:
Experiment in all cases: pull-down; GST pull-down; purified GST-HACE1 proteins incubated with purified cyclin C-MBP-His for 6 h at 4°C in 50 mM Tris-Cl, 200 mM NaCl, 1 mM EDTA, 1% NP-40, 1 mM DTT, 10 mM MgCl2, 10 μg/ml BSA, pH 8.0; GST pulled down, cyclin C immunoblotted
Conditions in all cases: both partners purified
[1] = target: T1, GST‐HACE1 truncation, amino acids 1–546 (human, UniProt Q8IYU2 1-546)
T1 sequence (looked up): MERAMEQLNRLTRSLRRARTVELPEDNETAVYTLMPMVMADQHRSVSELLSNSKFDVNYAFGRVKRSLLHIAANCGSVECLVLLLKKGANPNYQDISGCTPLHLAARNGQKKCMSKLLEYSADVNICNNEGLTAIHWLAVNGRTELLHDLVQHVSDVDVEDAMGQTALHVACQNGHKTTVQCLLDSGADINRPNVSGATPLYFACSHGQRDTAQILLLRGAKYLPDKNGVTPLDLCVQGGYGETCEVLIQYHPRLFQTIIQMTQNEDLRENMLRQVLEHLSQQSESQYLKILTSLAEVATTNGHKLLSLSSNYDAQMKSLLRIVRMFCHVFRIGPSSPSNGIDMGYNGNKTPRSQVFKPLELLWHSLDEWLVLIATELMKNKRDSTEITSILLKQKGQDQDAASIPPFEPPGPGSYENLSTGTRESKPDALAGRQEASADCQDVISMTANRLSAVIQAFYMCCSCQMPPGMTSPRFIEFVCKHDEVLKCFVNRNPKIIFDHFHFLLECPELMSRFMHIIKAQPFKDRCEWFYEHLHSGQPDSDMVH

[2] = target: T2, GST‐HACE1 truncation, amino acids 547–909 (human, UniProt Q8IYU2 547-909)
T2 sequence (looked up): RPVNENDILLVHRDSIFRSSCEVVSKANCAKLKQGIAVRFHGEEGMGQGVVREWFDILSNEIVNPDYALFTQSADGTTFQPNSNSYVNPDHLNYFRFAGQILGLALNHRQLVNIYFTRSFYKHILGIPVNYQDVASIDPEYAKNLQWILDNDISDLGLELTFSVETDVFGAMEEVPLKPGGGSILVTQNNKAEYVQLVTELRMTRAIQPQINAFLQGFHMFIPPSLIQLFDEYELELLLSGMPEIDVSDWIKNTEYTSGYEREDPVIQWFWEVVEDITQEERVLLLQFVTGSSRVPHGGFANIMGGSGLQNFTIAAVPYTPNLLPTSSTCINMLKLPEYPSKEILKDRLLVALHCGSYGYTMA

[3] = target: T3, GST‐HACE1 (human, UniProt Q8IYU2 1-909)
T3 construct: HACE1, human; the cDNA encoding HACE1 cloned into pGEX4T-1; also called recombinant glutathione (GST)‐tagged HACE1; GST‐fused HACE1
T3 sequence (looked up): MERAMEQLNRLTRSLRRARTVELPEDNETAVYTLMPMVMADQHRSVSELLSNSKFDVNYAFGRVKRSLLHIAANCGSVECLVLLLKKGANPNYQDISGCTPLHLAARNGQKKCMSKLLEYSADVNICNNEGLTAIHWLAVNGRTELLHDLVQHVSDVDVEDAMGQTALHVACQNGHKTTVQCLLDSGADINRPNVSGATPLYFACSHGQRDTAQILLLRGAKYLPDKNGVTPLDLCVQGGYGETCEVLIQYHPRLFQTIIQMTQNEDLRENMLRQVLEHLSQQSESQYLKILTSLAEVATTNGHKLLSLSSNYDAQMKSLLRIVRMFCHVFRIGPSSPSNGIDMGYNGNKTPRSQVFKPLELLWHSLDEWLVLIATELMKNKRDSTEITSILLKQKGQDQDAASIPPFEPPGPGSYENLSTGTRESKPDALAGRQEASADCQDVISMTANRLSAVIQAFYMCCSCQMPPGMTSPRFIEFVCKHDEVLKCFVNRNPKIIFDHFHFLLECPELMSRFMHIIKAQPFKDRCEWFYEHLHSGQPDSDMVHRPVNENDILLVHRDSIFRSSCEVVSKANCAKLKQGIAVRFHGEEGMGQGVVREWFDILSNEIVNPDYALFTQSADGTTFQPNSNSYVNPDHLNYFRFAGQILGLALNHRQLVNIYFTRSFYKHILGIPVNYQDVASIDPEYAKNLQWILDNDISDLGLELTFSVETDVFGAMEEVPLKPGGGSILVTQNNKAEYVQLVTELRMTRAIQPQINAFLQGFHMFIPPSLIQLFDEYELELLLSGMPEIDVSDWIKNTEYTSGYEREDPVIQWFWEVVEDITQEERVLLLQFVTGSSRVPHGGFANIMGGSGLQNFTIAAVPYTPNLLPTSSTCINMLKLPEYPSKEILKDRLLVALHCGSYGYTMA

[4] = target: T4, GST‐HACE1 truncation, amino acids 258–909 (human, UniProt Q8IYU2 258-909)
T4 sequence (looked up): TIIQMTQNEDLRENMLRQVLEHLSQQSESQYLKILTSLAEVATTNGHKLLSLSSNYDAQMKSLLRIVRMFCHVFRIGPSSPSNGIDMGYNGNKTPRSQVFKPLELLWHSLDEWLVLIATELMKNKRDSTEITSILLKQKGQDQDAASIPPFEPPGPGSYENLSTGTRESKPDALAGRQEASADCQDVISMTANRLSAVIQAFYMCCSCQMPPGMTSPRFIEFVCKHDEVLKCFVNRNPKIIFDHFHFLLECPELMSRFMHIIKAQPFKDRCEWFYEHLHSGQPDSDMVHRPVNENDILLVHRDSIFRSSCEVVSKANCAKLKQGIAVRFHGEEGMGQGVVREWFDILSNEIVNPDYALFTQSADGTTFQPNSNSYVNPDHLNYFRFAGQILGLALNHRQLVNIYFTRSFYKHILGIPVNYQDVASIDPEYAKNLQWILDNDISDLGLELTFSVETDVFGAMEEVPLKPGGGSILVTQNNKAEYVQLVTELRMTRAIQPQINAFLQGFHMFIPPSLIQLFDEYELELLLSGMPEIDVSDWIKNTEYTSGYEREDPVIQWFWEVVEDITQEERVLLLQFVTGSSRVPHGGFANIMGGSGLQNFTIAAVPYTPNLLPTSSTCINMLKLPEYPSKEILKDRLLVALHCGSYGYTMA

- binding result [1]: binds
- binding result [2]: binds
- binding result [3]: binds
- binding result [4]: binds
B1: MBP‐His‐tagged cyclin C (natural protein, human)
chain: MAGNFWQSSHYLQWILDKQDLLKERQKDLKFLSEEEYWKLQIFFTNVIQALGEHLKLRQQVIATATVYFKRFYARYSLKSIDPVLMAPTCVFLASKVEEFGVVSNTRLIAAATSVLKTRFSYAFPKEFPYRMNHILECEFYLLELMDCCLIVYHPYRPLLQYVQDMGQEDMLLPLAWRIVNDTYRTDLCLLYPPFMIALACLHVACVVQQKDARQWFAELSVDMEKILEIIRVILKLYEQWKNFDERKEMATILSKMPKPKPPPNSEGEQGPNGSQNSSYSQS
notes: Cyclin C, human; the cDNA of CCNC cloned into pSJ8 (pET21a derivative, MBP-His fusion vector); also called cyclin C‐MBP‐His; source: Escherichia coli BL21, purified (Ni‐NTA agarose beads)
